The source of these data is the domain aggregation screens of Martell et al. (2025).

Where only a bound is given, the exact number is not on record here.

The series can be described thus: soluble fraction after stress (log2 fold change); higher = more stays soluble; pooled small domains, quantitative proteomics. The following applies: stress: 50 degC. The method in brief:
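Pooled custom libraries of small protein domains were measured in a high-throughput format, with quantitative proteomics as the read-out. Each library was stressed at 50°C. Aggregation propensity is given as the base-two logarithm of the fold change in how much of each protein stays soluble after the stress. Higher values mean a larger share of the protein remains in solution.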

Regarding “HMSSDLSNVVKIIDTLKHKKGALLPILHQIQREIGYIPLKTIDTIAKKLQQTPAEIHGVISFYHQFRTS”, the “soluble fraction (log2)” value worked out at 0.0942.

In the case of “HMGNLIIFYDAQTGSAPLLKAVKTSGATLVYEYKNLHGIAIRPSSKTSIEDAIAYFKKVNGVLSVE”, the “soluble fraction (log2)” value was -1.84.

Turning to “HMGVNEGVNKLFKTIQETPGKRMPYYALATDVPEKTIERWLKQLREEGKIEFKGSAKTGGYFVIDK”, the “soluble fraction (log2)” value was 0.0649.

On to “HMKTMAVYPVGTRVLTSDGEIGVVEKQNSEAPERPVIKILKGADGHDYEKPDFKDLMKILTLFIVDTI”, for which the “soluble fraction (log2)” value came out at 0.298.

With “HMPTAGYMTVTPDRVKEGQQFLATLRPPYVLKADGLAAGKGVLILPELEEAQRELEEMLGGFLGELSVNR”, the “soluble fraction (log2)” value was -0.0813.

As to “HMPRELKVRDVSHQHAGHAGWREGGETHFEVDMKADVFAGTSRVAAHRMVNKVLANELASRVHALQLNLS”, the “soluble fraction (log2)” value is 0.0371.

In the case of “HMPNIQLARNLKYLRLAYGLTQDDLGAFLNISRQAYSNYENLKRSPDLDSLIRLASLYHLSLDDLVSR”, the “soluble fraction (log2)” value is -3.09.

Consider “HMKLVAAGYHQNRLLVLLGIQAEELQAKRLLASFDRFRGREATPKPPIHDSARRWLRDTYHHVMNQVPVEL”, for which the “soluble fraction (log2)” value is -1.07.

Regarding “HMDNPKGNLQEAVQAKGNEPIEYRVLNVDGPDHAREFKIAVFIGGKRKGTGVGNSKKKAEEIAAEKAFKRM”, the “soluble fraction (log2)” value was found to be 0.127.

As for “HMSNLVEVPAVIGRMKEDAITMLISAGLEPAVTYDEYPLVKENLVADQSVAPGQKVEKGSFVTITVSRS”, the “soluble fraction (log2)” value was -0.0475.

Take “HMSNFGALLRMRRLEAGLSYRGLAEQSGLARATLVNLEQGLTKPSPLTMRRLASVKALRLTEL”: the “soluble fraction (log2)” value is -2.26.

On to “HMGTHSAEQVRAAIRAIVAAEDAANPLSDARITELLAMRGIAAARRTVMKYREQLGIPSSAKRRR”, for which the “soluble fraction (log2)” value was -0.343.

For “HMDSNFNYELVGFRLDDMGLNSSVIVKRNNQEFVIQKGDLLENKYLLNSVTKKNINFSYLGKNYQI”, the “soluble fraction (log2)” value is -0.789.

“HMPKTLTEAAYEDIKQWILEGEITPGSKISLEDTASRLEVSMTPIREALTKLQQEGLVEYIPRAGWRASK”: the “soluble fraction (log2)” value stood at 0.173.

As for “HMGAQPLIEPLSERELEVLALIAEGLTNAEIGRRLFIATGTVKRHVNTIYGKLDVHGRIEAIARARDLHLI”, the “soluble fraction (log2)” value was -0.276.

With “HMASSRPLAEGDFVRLRAGGATGRIESIKGQKATVQMGGLKVHAPLRDLLPVAEPIKQVSTASNT”, the “soluble fraction (log2)” value is 0.0407.

As for “HMDEEQIASRRALIMRAAREIMETQGMEALSIRKIAAMIQQTPGIIYHYFSGKEELMLAVVQEGYH”, the “soluble fraction (log2)” value was found to be 0.111.

As for “HMQLKKDTILSYIEEKLIDSYNSNKGFTTQEISVALNMQRTNVSAILNNLVKENKLVKTKGKPVRYFLSG”, the “soluble fraction (log2)” value is -0.708.

In the case of “HMSKHATLLEALADLSVKLKPHSQLPSERALSEEYGVSRMTLRRAIDVLQARGYIYSVPSKGLFVSEP”, the “soluble fraction (log2)” value was -1.74.

With “HMRLPVELTDREVEVLRLLAQAMSNGEIARELYIGEATVKTHVSNVLQKLGARDRVAAVVWAHRYGL”, the “soluble fraction (log2)” value was -1.59.

On to “HMRLSVRQRMSDVLGALKTQAFVEFTQLFRPQEGRMGVTVTFSAILELLREGLIEIVQSEPFAPIHVRAGA”, for which the “soluble fraction (log2)” value is -0.0036.

As to “HMKITLAESVYERIRRDIITNQLKPGEKINIRELSTRYEASETPIRLALNRLASENIIEHFPRQGMRVK”, the “soluble fraction (log2)” value was -0.371.

On to “HMVPFISVTPTSLSFAKGGESKTVDIEASGAFSVGKVPTGFNLEVVNGRITITADANTGAARNGSVEFILA”, for which the “soluble fraction (log2)” value is -0.0614.

For “HMSQDPLETYYPQWSAAVKQSNPDAEIIRDTDGKYYVEGMTKNRVAVIYENPHLVRLVNATTNVHVE”, the “soluble fraction (log2)” value came to 0.0542.

With “HMLSNLYAVLGVGRRATPDEITAAFDAWNARADAGEPIDDPLWERVRYAWDVLSSPSRRDLYDSLVDDATG”, the “soluble fraction (log2)” value is -1.71.

On to “HMPGEIKKIPINSISYQDLKQHPYFDAYLAKQVIKYRETKGRIENIEQFREATRAYQSLIEKVTPYLDFE”, for which the “soluble fraction (log2)” value was determined as 0.14.

For “HMLSEKELLELLNRAKSNYNGITKKGIEAIALKYQGYSNVEIANLYHVKANHISAWISRARSRLKADY”, the “soluble fraction (log2)” value is 0.193.

On to “HMVEVPKVAGMSTAQGVSELEQKGFVVNRTESYDDTVPKGNIISQTPEGGTKVPSGSAVTIKISQGAE”, for which the “soluble fraction (log2)” value is -0.157.

As to “HMQAKDVEIPNFVGKTLAEANADNKDNFNFVVESKYDASKELGVILEQEPAADSKLVKSGSQITLKV”, the “soluble fraction (log2)” value is ≥ 0.62.

“HMLELTGEEEFVIRTLTRQGDLHINALVVETDIPINRMISLLFELEMKGVVKALVGGVYHLLG”: the “soluble fraction (log2)” value is -2.04.

Regarding “HMRRELDSEHKRQEILFAAKRLLLAEGYDATSMSRLAKEAGVAPNTLYWYFKDKDELLIAILDELVAE”, the “soluble fraction (log2)” value was -1.72.

In the case of “HMRIYFSPSEIGFYHESDKQAYLLAGTWPNDLLEISEKWFLYLLEGQQKGKVITVNDYDQPVLVD”, the “soluble fraction (log2)” value was -3.31.

As to “HMAVNQEFKNTINRIKYEYSLNQSQIADRLGVKKTYLSDMINGRVPYNETMNKKVNDVFPLPP”, the “soluble fraction (log2)” value stood at 0.11.

For “HMDFLKSVDLSKYSKVESLILSHLSKGDFDIDDFIRSFSLGTDEVTRAIVSLEIEGIILRKGNRIFRKKS”, the “soluble fraction (log2)” value was -0.0402.

With “HMRPTDVLNYDESMRILNFSNNRVGFKHLMDAKGIEQVIFKNRKIGYRKSEILALKSELEAEQK”, the “soluble fraction (log2)” value was -0.341.

Turning to “HMKYKKYKLLKDLPTFKAGQLAYISKTGNLIAGTPENQKTTETGLIIMIYHETTLKKFPNILTEWFEEIE”, the “soluble fraction (log2)” value is -2.71.

For “HMDSNPLSEREQEVLQLVAKGASNQTIAEQLFLSNGTIRNYMTAIFNKLNANNRTDAVRIARENGW”, the “soluble fraction (log2)” value is -0.144.

In the case of “HMIHFDHPERSILDTMLYEKKGMTAQSARNRLAAYQFQGEDVFKPVSVLSGGELSRITLAIKNAMADK”, the “soluble fraction (log2)” value was -0.186.

Consider “HMQYSIQVNKLLKAMREDVWYTANEILDLLKLKSKETLRKNYLDPAINNKLIILELPDKPTSRNQRYKI”, for which the “soluble fraction (log2)” value was -1.66.

With “HMRQDEKTLLYWIGAQVKREGKLIKTSTAQYLVEKTGTDMENLEKELEKLFAYTLDEKEITPAAIDEI”, the “soluble fraction (log2)” value was -1.8.

Regarding “HMWSAREQVVNSLREAILTSELKAGERLVLSDLSARLGVSVTPIREALQSLEREGLVQLMPHQEAVVV”, the “soluble fraction (log2)” value was 0.155.

Take “HMSASEKLFEARKNLNIVNVLGKNPVDRYDIVKILKHGDHYHIYDSKGNEGITYTNPKSLYPEAEFGEYQG”: the “soluble fraction (log2)” value amounted to 0.12.

As to “HMLSTGQLIRYYRKRAGMTQAELAEEVEMSEPGIRNYELGNRTPSKAQLSAIARGLGIEPEALI”, the “soluble fraction (log2)” value was -0.48.

With “HMRLGQLQSVEEPKFIEVHSGKQGDIGEQTIVEYEIDAKYATGDATINLKLLFRDGLFEIYNFNFSSEALL”, the “soluble fraction (log2)” value was 0.0828.

Consider “HMDKFTYVVKKEDEQYQIKDILRHNFTFSSRLRKKLKQNNSIFLNGAETVGWATPKEGDIISVRLP”, for which the “soluble fraction (log2)” value is -0.433.

Regarding “HMSNENIDQDELQAIIQKVLASNQDAVAKYKAGKTAVIGFLIGQVMRQLNKKIDVALAKKTLLVFLEK”, the “soluble fraction (log2)” value is -0.396.

As for “HMSPSLVEAMRLRMYEMGLNQAKLSELLGVSPSRVSDYLTGRSEPTLKVARDISRKLNIDASIVLG”, the “soluble fraction (log2)” value was -1.07.

As to “HMYSFPHQLLKLRTEKQLSQAELATRLFVSRQAVSKWENGDAEPSIDKLILLAKVFNVSLDRLILGT”, the “soluble fraction (log2)” value is -1.43.

“HMAMTQNVDLAGRIVFNEKKEEVFNFGKHKGRSVAEVFEKEPSYYDWMLKGDFPAETKQVLTALRLRGLS”: the “soluble fraction (log2)” value is -0.0725.

For “HMYLELVTKEGGSFDEPDYWGRRKLAYEIAGKTEGNYVVVKYTAEPATSDELDRVLNLNESVIRTKILRK”, the “soluble fraction (log2)” value amounted to 0.0508.

For the sequence “HMKKAIYPGSFDPLTLGHIDIIKRASGIVDELVVGVLNNSAKNSLFSLDERVSMIEEMTKDLPNVSVTSFD”, the “soluble fraction (log2)” value was found to be 0.136.

With “HMKKYEIIFNDLKQSIVNGKYSNEERLPPEETLAKKYQTSRVPVQQALNALVGIGMVKRIAGSGTYVTY”, the “soluble fraction (log2)” value is -0.628.

“HMKNTLDAYIRYLSNFLSRNNYPEAEDLSFINARADQAYEVFLEARRGGVDVSTAEELAMIALMQGY”: the “soluble fraction (log2)” value was -1.13.

As for “HMSQEAKLAMPVTDLRLSARTLNALELANIRTVRDLVSHTEEQLLELRNFGETALAEVKEKLAALGLRLGM”, the “soluble fraction (log2)” value was found to be 0.18.

Turning to “HMTEKMILKWKEALERMNDDFTTKDWLNVVIHEMGKSERTAYGWLSDMKRSGIIKDLGYGSWLKVLE”, the “soluble fraction (log2)” value is -0.738.

“HMSGSPREQAESEYRKAIAAVNQGRVSEATESLRAALRLDAFQVAARQLLVKLLLEAKNQDEAIQVLR”: the “soluble fraction (log2)” value is -0.463.

As to “HMGREVVVPNLAGIEKEVALDLLKKNRLGGMITGTRFSSDFPAGQVIQQMPEAGSRVKVGKQVKLVLSEG”, the “soluble fraction (log2)” value was 0.323.

In the case of “HMSYTWHDMYLLAQEYQKEHGNLIIPRNYKGKNGLNLGYWLYKEKLKYRQGKLAPEKIIALEHIGIVWT”, the “soluble fraction (log2)” value is -1.21.

Turning to “HMKHRTQMDIQQLPAIEGKGGFEYKISIIHLSTRIKYSEIHDNYNTTTIAKVYENAIERLPPF”, the “soluble fraction (log2)” value is -2.24.

Take “HMGDSFLDHKKELQSMILSRLDLSREVPDEEIKDIIDELIIAQSKKLFLSLNDRGKLRQELFYSIRK”: the “soluble fraction (log2)” value is -0.566.

As for “HMTFPYTSLKDAPKNMKEIDGVPLTLDQVNQIAKVADSIGVSKEKNGYAIAKSQFKKSHHIENNRWVKNK”, the “soluble fraction (log2)” value was determined as 0.0239.

For the sequence “HMGIAEAKRVIVRTLHDVLGPEADFLTEKIDVAQTAAELRVHAEKYRDMLVDMGKPKKSAAFWEAFEAALP”, the “soluble fraction (log2)” value was -0.0544.

On to “HMKHFNDEELDGFAGLKSDDYNEEQVELFRNIFEELHPDEIIEWTESLRRRGIEIPSSLKDEVVMMIN”, for which the “soluble fraction (log2)” value was 0.173.

As for “HMKKQLKSEAVADELRRKILSGGFPDKRLPRKDELTEYFQVSQKTVEAALKMLTAEGLIRGVKGTGIFVNG”, the “soluble fraction (log2)” value is -0.0396.

Turning to “HMNDIVKIYTTHRIINIEGLAKNEPIMLYTINGTLIDKSVSSNGSAQLHVKGIGVYLVKWANNIVKVIVPN”, the “soluble fraction (log2)” value is -2.42.

Consider “HMGKEWPTPDNVEEWKKLVKKARLWPIQADQAQSEETRERNRKKWELFVAYAKRFGYRAGIGETGKPFVNN”, for which the “soluble fraction (log2)” value is -0.443.

For the sequence “HMHTNNALWAIADDMRARKDDGEFDTYREGYKWAANNIVKEGIHITAIKLEKAYHKAKSEGKV”, the “soluble fraction (log2)” value is -0.0602.

With “HMSEIVEEQNTKLKQAVSKLSKRQQEVLYLKFEEGLDYEQISKIMDLKYQSVRNLVSTAIIKIKEH”, the “soluble fraction (log2)” value is -2.16.
